# Measured values from the Human Domainome abundance scans (Beltran et al. 2025).
# ± gives the uncertainty stated by the source.
# B1: Zinc finger MYM-type protein 3, residues 405 to 444; numbered along this chain, Q14202 (parent)
# chain: DATRCSICQKTGEVLHEVSNGSVVHRLCSDSCFSKFRANK
# Variants of: B1
# Test: abundance fitness (aPCA) (normalised: wild type 0, dead -1); higher = more abundant; growth selection in yeast, the domain comes from the species named
# Conditions: Homo sapiens
row,Variant,abundance fitness
1,C8K,-0.999 ± 0.097
2,C8R,-0.787 ± 0.057
3,C8L,-0.843 ± 0.078
4,E13P,-0.236 ± 0.079
5,E13G,-0.271 ± 0.056
6,E13V,-0.298 ± 0.057
7,E13H,-0.204 ± 0.091
8,H16P,-0.605 ± 0.078
9,H16I,-0.701 ± 0.13
10,H16F,-0.208 ± 0.12
11,H16T,-0.352 ± 0.063
12,S19P,0.023 ± 0.065
13,S19F,-0.101 ± 0.11
14,S19N,0.052 ± 0.091
15,N20S,-0.069 ± 0.06
16,N20K,-0.138 ± 0.072
17,N20M,-0.001 ± 0.072
18,K40W,-0.116 ± 0.14
19,K40R,0.023 ± 0.068
20,K40G,0.211 ± 0.064
21,K40N,0.15 ± 0.13

row,Variant,abundance fitness
1,F33E,0.175 ± 0.077
2,F33D,-0.016 ± 0.081
3,F33R,0.106 ± 0.051
4,F33N,0.01 ± 0.15
5,T11S,-0.315 ± 0.069
6,T11I,-0.203 ± 0.23
7,T11K,-0.354 ± 0.088
8,T11P,-0.499 ± 0.078
9,T11V,-0.452 ± 0.064
10,T11R,-0.287 ± 0.058
11,D1P,-0.32 ± 0.1
12,D1L,-0.07 ± 0.11
13,D1W,-0.504 ± 0.23
14,D1A,-0.182 ± 0.089
15,D1G,0.154 ± 0.054
16,S29L,-0.755 ± 0.067
17,S29G,-0.277 ± 0.054
18,S29T,-0.771 ± 0.1
19,S29V,-0.596 ± 0.062
20,R26L,-0.196 ± 0.055
21,R26G,-0.117 ± 0.053

row,Variant,abundance fitness
1,R26I,-0.173 ± 0.073
2,R26P,-0.074 ± 0.066
3,C28I,-0.95 ± 0.18
4,C28L,-0.886 ± 0.062
5,C28F,-1.09 ± 0.12
6,C28P,-0.639 ± 0.083
7,A2R,-0.089 ± 0.053
8,A2T,0.35 ± 0.062
9,A2I,0.327 ± 0.11
10,A2G,-0.186 ± 0.055
11,A2D,0.305 ± 0.067
12,C32N,-0.808 ± 0.1
13,C32V,-0.742 ± 0.068
14,C32P,-0.763 ± 0.13
15,C32Q,-0.345 ± 0.079
16,R37K,0.199 ± 0.067
17,R37H,0.137 ± 0.086
18,R37P,-0.18 ± 0.079
19,R37W,-0.288 ± 0.07
20,L15E,-0.227 ± 0.062
21,L15I,0.001 ± 0.07

row,Variant,abundance fitness
1,L15V,-0.034 ± 0.055
2,G21D,0.016 ± 0.083
3,G21H,-0.235 ± 0.17
4,G21N,-0.646 ± 0.21
5,G21V,-0.611 ± 0.059
6,D30L,-0.398 ± 0.057
7,D30F,-0.632 ± 0.13
8,D30Y,-0.857 ± 0.34
9,D30Q,-0.079 ± 0.096
10,V14F,-0.068 ± 0.063
11,V14A,-0.173 ± 0.056
12,V14L,-0.344 ± 0.056
13,V14R,-0.374 ± 0.054
14,V24G,-0.255 ± 0.052
15,V24F,-0.307 ± 0.12
16,V24W,-0.292 ± 0.066
17,C5L,-0.835 ± 0.08
18,C5Q,-1.05 ± 0.089
19,R4E,-0.211 ± 0.067
20,R4W,-0.563 ± 0.066
21,R4S,-0.35 ± 0.062
